The results in this text go back to patent publication US20140287419A1, “Compositions Having Dicamba Decarboxylase Activity and Methods of Use” (priority 2013, published 2014).

The data set can be described thus: 14C assay with IPTG-induced recombinant E. coli cells (14CO2 capture from [14C]-carboxyl-labeled dicamba). The conditions noted are these: for Dicamba Decarboxylase Activity: IPTG-induced recombinant E. coli cells, [14C]-carboxyl-labeled dicamba, 14CO2 capture; for Enzymatic Detection level: dicamba decarboxylation activity of the protein of the given SEQ ID NO; for decarboxylation activity of dicamba: E. coli cell assay, 108 sequences tested.

B1: 34 (protein)
chain: MAQGKIGLEEHFAIPETLNDSAGFVPGDYWKELSRRLLDIQDDRLRQMDENGMEMMLLSLNAPAVQAVPDRKQACELAVRANDFLAEQVSRRPDRFQALAALPLQDPDFATVELTRCVNELGMRGALVNGFSQIDTPDNVVYYDAPQYASFWAAVEKLDVPFYLHPRNPIASWAQIYDGHPWLLGPTWAFGQETAVHALRLMASGLFDRHPALQIVLGHLGEGLPYSLWRIDNRNAWVKAPKTHPAKKTFRHYFQQNFHLTTSGNFHNQTLIDAILEIGADRILFSTDWPFENIDHAAKWFDSASISEADRTKIGRTNAMKLFKLVA
modifications: Cupriavidus necator
For B1, the “Dicamba Decarboxylase Activity” value is listed as “High” and the “Enzymatic Detection level” value is “High”.

B2: SEQ ID NO:88: o-pyrocatechuate decarboxylase, Starkeya novella DSM 506 (protein, listed as Starkeya novella)
chain: MARKIALEEHFTTPELAGKYVARPTQSDALFADIERRLADFDELRLEMMDRAEIDLMVLSVTTPGVQGVRDTGEAIRLARGANDFLAREVQKRPSRYAGFAHLAMQDAEAAATELERAVRELGFRGALINGQTNGHYLDEDQYAPFWERVQELDVPVYLHPGNMADSPAMFAHRPELGGPIWAWTAETAAHALRLVFGGTFTRFPGAKVILGHMGETLPFLLWRLDSRREFDLGEKLAPDALPSAIIKRNIAVTTSGVCDPAPLVAALQALSDDNVMFSVDYPYEDPQLASKFIETAPIGEETRAKVCHGNAERLLGL
For B2, the “decarboxylation activity of dicamba” value is on record as “showed decarboxylation activity of dicamba”.

B3: SEQ ID NO:21: reversible 2,6-dihydroxybenzoic acid decarboxylase, Agrobacterium tumefaciens (protein, listed as Agrobacterium tumefaciens)
chain: MAQGKVALEEHFAIPETLQDSAGFVPGDYWKELQHRLLDIQDTRLKLMDAHGIETMILSLNAPAVQAIPDRKKAIEIARRANDVLAEECARRPDRFLAFAALPLQDPDAATQELQRCVNDLGFVGALVNGFSQEGDGQTPLYYDLPQYRPFWGEVEKLDVPFYLHPRNPLPQDSRIYDGHPWLLGPTWAFAQETAVHALRLMASGLFDAHPRLNIILGHMGEGLPYMMWRIDHRNAWVKLPPRYPAKRRFVDYFNENFHITTSGNFRTQTLIDAILEIGADRILFSTDWPFENIDHASDWFNATTIAEADRVKIGRTNARRLFKLDGR
Consider B3, for which the “decarboxylation activity of dicamba” value is recorded as “showed decarboxylation activity of dicamba”.

B4: SEQ ID NO:5: possible o-pyrocatechuate decarboxylase, Staphylococcus aureus subsp. aureus MN8 (protein, listed as Staphylococcus aureus)
chain: MAQNNMEANQMKSITFEEHYVIEDIQKETMNAISADPKGVPMKVMLEGLEKKTGFTNADELSHHDERIQFMNNQDVQIQVLSYGNGSPSNLVGQKAIELCQKANDQLANYIAQYPNRFVGFATLPINEPEAAAREFERCINDLGFKGALIMGRAQDGFLDQDKYDIIFKTAENLGVPIYLHPAPVNSDIYQSYYKGNYPEVTAATFACFGYGWHIDVGIHAIHLVLSGIFDRYPKLNMIIGHWGEFIPFFLERMDEALFAEHLNHPVSYYFKNNFYITPSGMLTKPQFDLVKKEAGIDRILYAADYPYIEPEKLGVFLDELGLTDEEKEKISYTNGAKLLGLSSNN
Regarding B4, the “decarboxylation activity of dicamba” value is “showed decarboxylation activity of dicamba”.

B5: SEQ ID NO:16: possible o-pyrocatechuate decarboxylase, Staphylococcus aureus subsp. aureus TCH60 (protein, listed as Staphylococcus aureus)
chain: MAQNNMEANQMKSITFEEHYVIEDIQKETMNAISADPKGVPMKVMLEGLEKKTGFTNADELSHHDERIQFMNNQDVQIQVLSYGNGSPSNLVGQKAIELCQKANDQLANYIAQYPNRFVGFATLPINEPETAAREFERCINDLGFKGALIMGRAQDGFLDQDKYDIIFKTAENLGVPIYLHPAPVNSDIYQSYYKGNYPEVTAATFACFGYGWHIDVGIHAIHLVLSGIFDRYPKLNMIIGHWGEFIPFFLERMDEALFAEHLNHPVSYYFKNNFYITPSGMLTKPQFDLVKKEAGIDRILYAADYPYIEPEKLGVFLDELGLTDEEKEKISYTNGAKLLGLSSNN
Take B5: the “decarboxylation activity of dicamba” value is on record as “showed decarboxylation activity of dicamba”.

B6: SEQ ID NO:92: amidohydrolase 2, Chitinophaga pinensis DSM 2588 (protein, listed as Chitinophaga pinensis)
chain: MARIVTLEEHVSFPEMTALLPEEILKNRKQSGAALQMQEKLADITGERLTSMKAAGISMQVLSVENTDVYLLPDSLAPAFAAKYNDLLADKISSHSDAFAAFAMLPMTVPEAAADELERAVKTHGFCGAMIKGLINGVFLDAPKFAPVFACAEKLGVPLYIHPGIPPKEVIDAYYSNVGDTKGPNEAIACYGWGWHSETAIHILRLLAAGIFDKYPQLNIIIGHMGEMLPMMWERSNRVFQPGNNGKNQRTLIETFRKQLYITTSGIFTQPPLQIAIDTIGIDNILFSIDYPFSSNQMGIDFLTKAALPAEQLAKMAHGNADRILKF
For B6, the “decarboxylation activity of dicamba” value was “showed decarboxylation activity of dicamba”.

B7: 33 (protein, listed as Rhizobium leguminosarum)
chain: MAQGKIALEEHFAIPETLQDSAGFVPGDYWKELSARLLDIQEKRLRLMDAHGIEKMILSLNAPAVQAIPDRAKALEISRRANDFLAEQCVKNPNRFLGFAALPLQDPDAATQELQRCVTTMGFVGALVNGFSQEGDGTTPLYYDLPQYRSFWAEVEKLNVPFYLHPRNPLPQDSRIYAGHSWLMGPTWAFAQETAVHALRLMGSGLFDEHPALRIIVGHMGEGLPYMMWRIDNRNAWVKVEKSYPAKRPIADYFNENFYITTSGNFRTQSLIDAMLEIGADRILFSADWPFENIDHAANWFDSATISEADRLKIGRTNAVSLFKLDR
In the case of B7, the “Dicamba Decarboxylase Activity” value is “High” and the “Enzymatic Detection level” value was “High”.

B8: SEQ ID NO:26: o-pyrocatechuate decarboxylase, Variovorax paradoxus EPS (protein, listed as Variovorax paradoxus)
chain: MATHMAPMKNKIALEEHFAIDLTIADSQVYARPEVWQGLKSNLLDFEQQRLEKMDEWGTEFSILSLNSPAVQGIPDAKRAIEVAQRANDVLAEQVKRHPTRFGGFAALPMQDPEASARELERCVNQLGFHGFLVNGFSQVGDENIVVYYDDARFNDFWTAAAALKKPFYMHPRDPLLAREPIYDGAHWLTGPTWAFAMETAIHALRLMSSGMFDRHPALQMILGHFGEGIPFNIWRVDHILRKGRRGMPCDKEIGEYLRSNVHITTSGNFRTPTLLSTMLEVGSDRIMYSVDYPFEKHEDAARWFDTCEISENDRQKIGRDNARKLFGLK
B8: the “decarboxylation activity of dicamba” value is “showed decarboxylation activity of dicamba”.

B9: SEQ ID NO:19: 2,3-dihydroxybenzoic acid decarboxylase, putative, Talaromyces marneffei ATCC 18224 (protein, listed as Talaromyces marneffei)
chain: MATPIITLEEHYISSAIRDASETDHYAVFPSQIISKLNTLSTERLQDLDNGHVSLQVISHGPGAQPPYLCQAANDELASAISANPTRFAGFALLPIAEPQLAVQELERCITQHKFVGALIDNHTNGQFYDDQKFWPVFEKAQELDAPIYVHPSYPDEESGVAAHYRGNYDDRIAAALGAYGWGWHSDTALSILRLFAAGLFDTYPNIKIIIGHMGEMLPFQLERVIGIASRFGRSRGLREVWTQNIWVTTSGMFALAPLACLLQTMPIERVLYSVDYPFSANEKGFAFLEEIKKSGLIKEGEDWERFLYKNAQELLKVNV
On to B9, for which the “decarboxylation activity of dicamba” value is “showed decarboxylation activity of dicamba”.

B10: 35 (protein)
chain: MAFKASRKIALEEHFAIDATVQDSAGFVPPSYWAELKRRLLDIHDRRIDEMDRNGVELMVLSLNAPTVQAVPNIKDAYDLSRRANDFLAEQIVKRPERFKGFAALPMQSPDLAARELERCVKELNFVGALVNGFSQVEESGTALYYDLPQYRQFWSVVQALDVPFYLHPRNPLPAHAPIYEGHPWLLGPTWAFGQETAVHALRLMGSGLFDEYPELKIILGHMGEGLPYSMWRIDNRNAWVETQPNYPAKKRIAEYFHKNFWLTTSGNFRTQTLIDAMLEIGSDRILFSTDWPFENVDHAAQWFDDAAISENDRIKIARTNAARLFKLEP
modifications: Burkholderia sp
On to B10, for which the “Dicamba Decarboxylase Activity” value is given as “High” and the “Enzymatic Detection level” value is listed as “High”.

B11: SEQ ID NO:89: amidohydrolase, Erwinia billingiae Eb661 (protein, listed as Erwinia billingiae)
chain: MATNRRDFLKNATAVMAGSTVFAGSSHFASAAAVEPAAVQPPRRIIALEEHFMLPEFVGYLHETQQNLRNGLVDKVVTPLSDFGKGRLEIMDKNGVDFAVLSLSGPGVQAEPDRVKAVRLARYANDKLATEMQKNPRRYGGFAHLAMQDPLAAANELERCVKQLHMQGGMINGETDGLYLDDRRYDVFWERVEALNVPIYIHPGNPPDYPHMFAGHPEMWGPVWSWAVETCSHALRLIFSGTFDRYPGARVILGHMGETLPIQLWRLDSRYQIANQTFAIKHPPSWYAKKNITITTSGVCNDAALRCALDSMGSENVMFSIDYPFESTEIAVNWLKTANITEQERNAVAWGNATSILRLGA
For B11, the “decarboxylation activity of dicamba” value is given as “showed decarboxylation activity of dicamba”.

B12: SEQ ID NO:4: o-pyrocatechuate decarboxylase, Lactobacillus buchneri NRRL B-30929 (protein, listed as Lactobacillus buchneri)
chain: MAKVITLEEHFSSQKLGQKMAEVLPKRPIGNVSPKMQDYMQRSLPPEAELEDVTGSRIQWMDQHQISMQILSYGNQNPQNSDPKFAVELTKLANDELAKAVAKAPDRFRAFASLPVSHPTDAAAELKRGVEELGFKGAMLVRPTSQAHPFFDDPFYLPIFEAAANLNVPVYLHPSFPDSQIIDYYYSNGPWDDKVSGILGTAGYGWHTDVGIQTVRLLLSGVFEKYPNLKLISGHWGEFASFALERMDQVMYPETNLSEPISKIYRDHVYVTPSGILTEPQLKFVKDEVGIEHLLYSIDYPYIKPENSGSFIESSPLTDEEKELFAHGNAEKLLQL
With B12, the “decarboxylation activity of dicamba” value was “showed decarboxylation activity of dicamba”.

B13: SEQ ID NO:22: possible o-pyrocatechuate decarboxylase, Staphylococcus epidermidis M23864: W1 (protein, listed as Staphylococcus epidermidis)
chain: MAKSINFEEHYVVDDIQKETMKYMSSDPNGVPMQTMLKGLEQKSGFTNADDITKHDERIKFMDEHDVEMQVLSYGNGAPSNLEGERAIELCQQANDTLAKYVNEHPDRFVGFATLPINEPQAAVEEFKRCIKELGFKGALIMGHPKNGFLDQDQYDDLFATAEALNVPIYLHPSPVQSDVYQAYYKGNYSDVTAATFACFGYGWHVDVGIHAIHLVLSGVFDRHPNLNMIIGHWGEFVPFFLERMDDILFADHLEHPISYYFKNNFYITPSGMLTKPQFDLVKAEVGVDRILYSADYPYVEPDKLGTFLDELDLTEEEKEKISYKNGAKLLGLEK
Consider B13, for which the “decarboxylation activity of dicamba” value was “showed decarboxylation activity of dicamba”.
